The test deals with human complement C3a (human, UniProt P01024 672-748). As to the kind of experiment: SPR. In general terms: SPR reads the build-up and loss of mass on a sensor chip optically.
human complement C3a, sequence (P01024 672-748): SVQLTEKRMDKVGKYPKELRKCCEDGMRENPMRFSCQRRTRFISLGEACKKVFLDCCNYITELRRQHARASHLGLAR

B1: His-ISG65_(18-363)-Avi, C-terminally biotinylated (domain or fragment)
chain: LLVIGSEDNRVPGDKKLTKEGAAALCKMKHLADKVAKERSQELKDRTQNFAGYIEFELYRIDYWLEKLNGPKGRKDGYAKLSDSDIEKVKEIFNKAKDGITKQLPEAKKAGEEAGKLHTEVKKAAENARGQDLDDDTAKSTGLYRVLNWYCITKEERHNATPNCDGIQFRKHYLSVNRSAIDCSSTSYEENYDWSANALQVALNSWEDVKPKKLESAGSDKNCNIGQSSESHPCTMTEEWQTPYKETVEKLRELEDAYQRGKKAHDAMLGYANTAYAVNTKVEQEKPLTEVIAAAKEAGKKGAKIIIPAAAPATPTNSTKNDDSAPTEHVDRGIATNETQVEVGID
modifications: biotin on the C-terminal Avi-tag (site-specific Avi-tag biotinylation)
The Kd is the free concentration of one partner at which half of the binding sites on the other are occupied at equilibrium, for simple one-to-one binding. Low readings indicate higher affinity, high ones lower affinity. Regarding B1, the Kd amounted to 18 µM.

(Values after article PMC10140031 (2023).)
